# In the nanobody polyreactivity screen of Harvey et al. (2022):
# Experiment: yeast display, Sf9 membrane polyspecificity reagent, FACS + sequencing; frameworks hold sequencing errors
# Method in brief: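 Galactose induction of a Saccharomyces cerevisiae BJ5465 synthetic nanobody display library ran 36–48 hours. The cells were then stained for 1 hour at 4 °C with 10% biotinylated, detergent-solubilized Sf9 membrane reagent, pulled down on streptavidin microbeads and FACS-sorted into low and high (top ~1%) gates on expression and reagent-binding fluorescence. Labels for polyreactivity follow the gate of origin.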
row,Sequence,polyreactivity (PSR sort gate)
1,QVQRVETGGGLVQAAGSLRLSCAASGRTFRNYAMGWYRQAPGKERELVAAIRSGVRTYYADSVKGRFTISRDNAKNTVYLQMNSVKPEDTAVYYCAVATGLLYKSHGYCGQGTQVTVSS,low polyreactivity
2,QVQRVETGGGLVQARGSLRLSCAASGRIFACYTMGWFRQAPGKERELDAAISWNGGRTYYADSVKGRFTISRDNAKNTVYLQMNSLKPEDTAVYYCAAGKTPQKYGGFNYWGQGTQVTVSS,high polyreactivity
3,QVQVGESGGGLVQAGGSLSLSCAASGSIFPANAMGWYRQAPGKERELVAAITRGGRTYYADSVKGIFTISRDNAKNCVYLQMNSLKPEDTAVYDCAAYVLSKREYYRYDYWGQGTQVTVSS,high polyreactivity
4,QVQVVESGGALVQAGGSLRLSCAASGRTFDWNAMGWYRQAPGKERELVAAITYSGGGTYYADSVKVRFTISRDHATNTVYLQMNSLKPEDTAVYYCAAGYPGTWSYYYWGQGTQVTVSS,low polyreactivity
5,QVQVVESGGGFVQAGGSLRLSCAASGRTFAVYAMGWYTQAPGKEREFVATISVSDGSTYYADTVKGRFTISRDNAKNTVYLQMNSLKPEDTAVYYCAAQRWTVKYNYWGQGTQVTVSS,high polyreactivity
6,QVQVVESGGGFVQAGGSLRLSCAASGRTFRYYAMGWYRQAPGKERELVAVISSSDSTNYADSVKGRFTISRDNAKNTVNLQMNSLKPEDTGVYYCAKVYRVIRPYGYWGQGTQVTVSS,high polyreactivity
7,QVQVVESGGGIVQAGGSLRLSCAASGSIFETYAMGWYRQAPGKESELVAAISRTSGRTYYADSVKGRFTISRDNAMNSVYLQMNSLKPDDTAVYYCAAVVRNPGTYDYWGQGTQVTVSS,high polyreactivity
8,QVQVVESGGGLDQAGGSLGLSCAASGSIFIKYAMGWSRQAPRKERELVAAISRRGGSPYYADSVKGRFTISRDNAKNTVYLQMISLKPEDTAVYYCAAVNISFGYADRFYYVYRGDYWGQGTQVTVSS,high polyreactivity
9,QVQVVESGGGLLQAGVSLRLSCAASGRTFSKYDMGLYRQPPGKERELVAAITRTGSSTYYADSVKGRFTISRDNAKNTVYLQMNSLKPEDTAVYYCAADRYLRYSGSSSDYGYWVQGTQVTVSS,low polyreactivity
10,QVQVVESGGGLVQAGCSLRLSCAASGFTFRDYAMGWYRPAPGKERELVATITLRVGSTFYADSLKGRFTISRDNAKNTVYLQKNSLKPEDTAVYYCADEDSNVVAYDYWGQGTQVTVSS,low polyreactivity
11,QVQVVESGGGLVQAGGSHRLSCAASGSTFIRYPMGWYRQAPGKERELVAAITWSGGSTYYADSVKGRFTISRDNAKNTVYLQMNSLKPEDTAFYYCAARGPSLSNYRGRMYYWGQGTQVTVSS,high polyreactivity
12,QVQVVESGGGLVQAGGSLGLSCAASGSTFTRNAMGWYRQAPGKERELVAAITSSGGSTYYADSVKGRFTISRDNAKNTVYLLMNSLKPEDTAVYYCAAYVRPSYFGWMDYWGQGTQVTVSS,low polyreactivity
13,QVQVVESGGGLVQAGGSLRISCAASGRILGNNVMGWYRQAPWKERDLVAAITSSGGRTYYADSVKGRFTISRDNAKNTVYLQMNSLKPVDTAVYYCAAERRYYGKFNYWGHGTQVTVSS,high polyreactivity
14,QVQVVESGGGLVQAGGSLRLICAASGSTFYSYAMGWYRQAPGKERELVAPISSSGVRTYYADSVKGRFTISRDNAKNTVFLQMISLKPEDTAVYYCNTYLKRYVGRGGPSYYWGQGTQVTVSS,high polyreactivity
15,QVQVVESGGGLVQAGGSLRLSCAASGFTFAVYAMGWYRQAPGKERELVAAISRSGTRTYYADSVKGRFTISRDNAKNTVYVQMNSLKPEDTAVYYCAADKYRHGYDYWGQGTQVTVSS,low polyreactivity
16,QVQVVESGGGLVQAGGSLRLSCAASGFTSTRYAMGWYRQAPGKERELVAAISYGGGDTYYADSVKGRFTISRDNAKNSVYLQMNSMKPEDTAVYYCNARGRYRKSERRAFDYWGQGTQVTVSS,high polyreactivity

row,Sequence,polyreactivity (PSR sort gate)
1,QVQVVESGGGLVQAGGSLRLSCAASGITFFLNAMGWYRQAPGKERELVAAISSGAGTTYADSVKGRFTISRDNAKNTFFLQMKSLKPEDTAVYYCAAAGDYVVPISSTAGFGGDYWGQGTQVTVSS,low polyreactivity
2,QVQVVESGGGLVQAGGSLRLSCAASGLTFQVYAKGWYRQAPGKERELVARISSSGSSTYADSVKGRFTISRDNAKNTVYLQMNSLKPEDTAVYYCNAGKRQRGEYWGQGTQVTVSS,high polyreactivity
3,QVQVVESGGGLVQAGGSLRLSCAASGRIFGYNAMGWYRQAPGKERELVAAISSGGSTYYADSVKGRFTISRDNAKNTVYLLMHSLKPEDTAVYYCAAEDYPPYPTVYDYWGQGTQVTVSS,low polyreactivity
4,QVQVVESGGGLVQAGGSLRLSCAASGSIFFVYAMGWYRQAPGKERELVAAISSGDITYYADSVKGRFTISRDNAKNTVYLQLISLKPEDTAVYYCNAERLGNTLSPGGDDYWGQGTQVTVSS,low polyreactivity
5,QVQVVESGGGLVQAGGSLRLSCAASGSIFSGYAMGWYREAPGKERELVAAITSSGGSTYYADSVKGRFTISRDNAKKTVYLQMHSLKPEDTAVYYCAAYRYRYYSYDSWGQGTQVTVSS,high polyreactivity
6,QVQVVESGGGLVQAGGSLRLSCAASGSIFSWNAMGWYRQAPGKERELVAAISKRGTSTYYADSVKGRFTISRDNAKNTVYLQMNSLKPEDTAVYYCAVSRIVDFGQKMYYWGQGTQVTVSS,high polyreactivity
7,QVQVVESGGGLVQAGGSLRLSCAASGSISDSYAMGWYRQAPGKERELVAAITSGDSTYYADSVKGRFTISRDNAKNTVYLQMNSLKPEDTAVYYCAKRVSRVRGYGFTDWSEYDYWGQVTQVTVSS,low polyreactivity
8,QVQVVESGGGLVQAGGSLRLSCAASGSTFFFYAMGWYIHAPGKERELVAAISSTGRKYYADSVKGRFTISRDNAKNTVYLQMNSLTPEDTAVYYCAARIYSGYSYWGQCTQVTVSS,high polyreactivity
9,QVQVVESGGGLVQAGGSLRLSCAASGSTFGVYAMGWYRQAPGKEWELVAAISASTGSTYYADSVKGRFTISRDNAKQTVYLQMNSRKPEHTAVYYCAAAGYGKVRGDYWGQGTQVTVTS,low polyreactivity
10,QVQVVESGGGLVQAGGSLRLSCAASGYIINQYTMGWYRQAPGKERELVADNSSGGSTTYADSVKGRFTISRDNAKNTVYLQMNSLKTEHTAVYYCNAEYDSGSPTAYDWEYDYWGHGTQVTVSS,high polyreactivity
11,QVQVVESGGGLVQAGGSLRLSSAASGSTFNYNAMGWYRQAPGKERELVAAITNGGSTSYADSVKGRFTISRDNAKNTVYLQMNSLKPEDTAVYYCNADEDLRGYDYWGQGTQVTVSS,low polyreactivity
12,QVQVVESGGGLVQEGGSLRLSCAASGSTFGINAMGWYRPAPGKEREWVAAITSTGRTYYADSVKGRFTNSRDNAKNTVYLQMNSLKPEDTAVYYCAAVWRYKGLLLPSYYYWGQGTQVTVSS,high polyreactivity
13,QVQVVESGGGLVQTGGSLRLSCAASGSTFRRYDMGWYRPAPGKEWELVAAISVSGGNTYYADSVKGRFTISRDNAKNTVYLQMNSLKPEDTAVYYCATSRWVDNKYTLRSRYYYWGQGTQVTVSS,high polyreactivity
14,QVQVVESRGGLVQAGGRLRLSCAASGSTFGVNAMGWYRTAPGKERELVAAISYTGGSTYYADSVKGRFTISRDNAKNTVYLQMNSLKAEHTAVSYCAVEVGYTDSPYSYDYWGQGTQVTVSS,low polyreactivity
15,QVQVVETGGGLVQAGGSLRLSCAPSGITFVTYAMGWYRQAPGKERELVAAISRSGGRTYYADSVNVRFTISRDNAKNTVYLQMNSLKPEDTAVYYCAAERKNKYDYWGQGTQVTVSS,high polyreactivity
16,QVQVVKSGGGLVQAGGSLSLSCAASGRTFGVYAMGWYRQAPGNESELVAGIRWRGGSTYYADSVKGRFTISRDNSKNTVYLQMKSLKPEETAVYYCAADVDLVKDDYWGQGTQVTVSS,low polyreactivity
